From patent publication US20250289873A1 (BROADWING BIO, published 2025)

What was measured:
[1] = target: T1, Human CFHL1-Y402H-His (ATX-P-421) (human); test: Carterra LSA biosensor, mAb printed on chip, cutoff set by isotype control
T1 construct: also called human CFHL-1 (Y402H) protein
T1 chain: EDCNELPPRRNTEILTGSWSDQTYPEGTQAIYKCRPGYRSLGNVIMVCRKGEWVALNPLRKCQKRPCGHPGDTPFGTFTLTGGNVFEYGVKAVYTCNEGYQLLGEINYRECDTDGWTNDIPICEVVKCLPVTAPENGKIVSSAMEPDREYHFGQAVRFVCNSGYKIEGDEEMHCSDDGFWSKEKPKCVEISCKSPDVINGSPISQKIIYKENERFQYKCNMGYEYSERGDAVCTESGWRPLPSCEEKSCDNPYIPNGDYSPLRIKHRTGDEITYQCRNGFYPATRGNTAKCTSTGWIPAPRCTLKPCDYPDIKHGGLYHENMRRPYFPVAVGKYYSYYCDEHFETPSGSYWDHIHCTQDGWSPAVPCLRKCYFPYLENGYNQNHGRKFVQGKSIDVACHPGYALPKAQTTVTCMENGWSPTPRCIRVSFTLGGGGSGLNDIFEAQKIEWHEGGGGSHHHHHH
Experimental: (§1) Experiments were also conducted to determine the reactivity of the CFHR4 antibodies with the human CFHR3 protein (FIG. 9). The binding experiments were performed on Carterra LSA with a running buffer of PBS pH 7.40, 1% BSA, 0.05% Tween20. Antibodies were covalently printed on an HC30M chip. Chip was activated with 33 mM s-NHS and 133 mM EDC in 100 mM MES pH 5.5 for 7 minutes. Antibodies at 10 mg/ml in acetic acid buffer pH 4.5 were used for printing for 10 min. The printed chip was then quenched with 1 M ethanolamine pH 8.5 for 7 min. For the reactivity assay, ATX-P-58, human CFHL3-His, at 550 nM was tested with 5 min association followed by 15 min dissociation. Results were processed and analyzed in Carterra LSA Kinetics Software. The data was referenced with the interstitial reference spots and double-referenced to a buffer cycle, and then the responses (nm) after association were reported. Isotype control was used to determine the cutoff response for positive binding.
as §1, with “CFHL-1 (Y402H)” for “CFHR3”, “10).” for “9).”, “ATX-P-421,” for “ATX-P-58,”, “CFHL1-Y402H-His,” for “CFHL3-His,”, “380” for “550”

[2] = target: T2, human CFHL3-His (ATX-P-58) (human, UniProt Q02985 19-330); test: Carterra LSA biosensor, mAb printed on chip, human CFHL3-His at 550 nM
T2 construct: also called human CFHR3 protein; CFHR3; not shown: C-terminal His tag (and linker)
T2 sequence (looked up): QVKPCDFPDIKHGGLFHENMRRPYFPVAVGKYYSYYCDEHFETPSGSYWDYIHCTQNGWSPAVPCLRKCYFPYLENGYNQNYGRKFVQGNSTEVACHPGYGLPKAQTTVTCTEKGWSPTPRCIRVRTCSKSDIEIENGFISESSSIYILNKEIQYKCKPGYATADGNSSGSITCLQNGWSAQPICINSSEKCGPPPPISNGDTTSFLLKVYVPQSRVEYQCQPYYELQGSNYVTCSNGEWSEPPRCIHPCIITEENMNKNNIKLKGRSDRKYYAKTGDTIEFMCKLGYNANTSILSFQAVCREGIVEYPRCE
Experimental: as §1

[3] = target: T1, Human CFHL1-Y402H-His (ATX-P-421); test: Carterra LSA biosensor, mAb printed on chip, human CFHL1-Y402H-His at 380 nM
Experimental: as §1, with “CFHL-1 (Y402H)” for “CFHR3”, “10).” for “9).”, “ATX-P-421,” for “ATX-P-58,”, “CFHL1-Y402H-His,” for “CFHL3-His,”, “380” for “550”

[4] = target: T2, human CFHL3-His (ATX-P-58); test: Carterra LSA biosensor, mAb printed on chip, cutoff set by isotype control
Experimental: as §1
as §1, with “CFHL-1 (Y402H)” for “CFHR3”, “10).” for “9).”, “ATX-P-421,” for “ATX-P-58,”, “CFHL1-Y402H-His,” for “CFHL3-His,”, “380” for “550”

B1: ATX-P-569 (antibody, human IgG1, kappa, N297A, V domains shown)
VH: EVQLVESGGGLAQFGRSLRLSCAASGFTFDDYAMHWLRQAPGMGLEWVSGISWNSGSIGYADSVKGRFTIARDNAKNSVHLQMNSLRAEDTALYYCAKDIGNGYTKGDVFDIWGQGTMVTVSS
VL: DIQMTQSPSTLSASVGDSVTITCRASQNIITWLAWYQQKPGKAPNLLIYKASSLESGVPSRFSGSGSGTEFTLTISSLQPDDFATYYCQQYSSYSYTFGQGTKLEIKR
Q: Does B1 bind [1]?
A: no binding (tested: 380 nM)

Q: Does B1 bind [2]?
A: binds

B2: ATX-P-570 (antibody, human IgG1, kappa, N297A, V domains shown)
VH: QVQLQESGPGLVKPSETMSLTCTVSGGSFTGYYWSWIRQPPGKGLEWIGYVHYSGGTKSNPSLKSRVTISVDTSKNQFSLKLSSVTAADTAVYYCARERYEWNSYFDYWGQGTLVTVSS
VL: not shown
Q: Does B2 bind [3]?
A: binds

Q: Does B2 bind [4]?
A: no binding (tested: 550 nM)

B3: ATX-P-561 (antibody, human IgG1, kappa, N297A, V domains shown)
VH: QVQLQQSGPGLVKPSQTLSLTCAISGDSVSSNSAAWNWIRQSPSRGLEWLGRTYYRSKWYNGYAVSMKSRITINPDTSKNQFSLQLNSVTPEDTAMYYCAREGVGATTGFDYWGQGTLVTVSS
VL: DIQMTQSPSSLSASVGDRVTITCRASQGISSWLTWYQQKPGKAPKLLIYAASSLQGGVPSRFSGSGSGTDFTLTISSLQPEDFATYYCQQANSFPPTFGQGTKVEIKR
Q: Which results are given for B3?
A: binding result [3]: binds; binding result [2]: binds

B4: ATX-P-610 (antibody, human IgG1, kappa, N297A, V domains shown)
VH: QVQLQQSGPGLVKSSQTLSITCAISGDSVSSNSAAWNWIRQSPSRGLEWLGRTYYRSKWYNDYALSVKSRIIIKSDTSKNQFSLQLNSVTPEDTAVYYCAREPGIAAPGPFDYWGQGSLVTVSS
VL: DIQMTQSPSSVSASVGDRVTITCRASQGISSWLAWYQQKPGKAPKLLIYAASSLQSGVPSRFSGSGSGTDFTLTISSLQPEDFATYYCQQNYRTPITFGQGTRLEIKR
Q: Does B4 bind [1]?
A: no binding (tested: 380 nM)

Q: Does B4 bind [2]?
A: binds

B5: ATX-P-588 (antibody, human IgG1, kappa, N297A, V domains shown)
VH: EVQLVESGGGLVQPGRSLRLSCAASGFTFEDYAMHWVRQAPGKGLEWVSGISWNSGSIGYADSVKGRFTISRDNAKKSLYLQMNSLRAEDTALYYCTKDRDDGYNYAGVFDYWGQGTLVTVSS
VL: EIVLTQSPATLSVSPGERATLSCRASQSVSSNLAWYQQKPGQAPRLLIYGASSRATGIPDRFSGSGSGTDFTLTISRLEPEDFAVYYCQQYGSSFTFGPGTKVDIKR
Q: What does the source list for B5?
A: binding result [3]: binds; binding result [2]: binds

B6: ATX-P-600 (antibody, human IgG1, kappa, N297A, V domains shown)
VH: EVQLVESGGGLVQPGRSLRLSCAASGFTFDDYAMHWVRQVPGRGLEWVSGISWSGGSIGYADSVKGRFTISRDNSKNSLYLQMNSLRAEDTALYYCTKDREDGYNYGGVFDYWGQGTLVTVSS
VL: EIVLTQSPGTLSLSPGERATLSCRASQNVRGSYLAWYQQKPGQAPRLLIYGASNRATDIPDRFSGSGSGTDFTLTISGLEPEDFVVYYCQQYGSSYTFGQGTKVEIKR
Q: Does B6 bind [3]?
A: binds

Q: Does B6 bind [2]?
A: binds

B7: ATX-P-571 (antibody, human IgG1, kappa, N297A, V domains shown)
VH: QVQLQESGPGLVKPSGTLSLTCAVSGGSISSRNWWSWVRQPPGKGLEWIGEIYHGGTTNYNPSLKSRVTISVDKSKNQFSLKLSSVTAADTAVYYCARGGLRLGELSPNAFDIWGQGTMVTVSS
VL: DIQMTQSPSSLSASVGDRVTITCRASQSISSYLNWYQQKPGKAPKVLIYAASSLQSGIPSRFSGSGSGTDFTLTISSLQPEDFATYYCQETYSVPLTFGGGTKVEIKR
Q: Which results are given for B7?
A: binding result [3]: binds; binding result [4]: no binding (tested: 550 nM)

B8: ATX-P-582 (antibody, human IgG1, kappa, N297A, V domains shown)
VH: QVQLQESGPGLVKPSGTLSLTCAVSGGSISISKWWSWVRQPPGKGLEWIGEIYHTGSTNYHPSLKSRVTISVDKSKNQFYLKLNSVTAADTAVYYCARDELRLGELSPSLDIWGQGTMVTVSS
VL: DIQMTQSPSSLSASVGDRVTITCRASQNINNYLNWFRQKPGKAPKLLIFAASSLQSGVPSRFSGSESGTDFTLTISSLQPEDFATYYCQQSYSTPLTFGGGTKVEIKR
Q: What does the source list for B8?
A: binding result [3]: binds; binding result [4]: no binding (tested: 550 nM)

B9: ATX-P-603 (antibody, human IgG1, kappa, N297A, V domains shown)
VH: QVQLQESGPGLVKPSGTLSLTCAVSGGSISGSHWWSWFRQPPGKGLEWIGEIYHTGSTNKNPSLKSRVTISLDKSKNQFSLRLRSVTDADTAVYYCARDQYTGSPRDAFDIWGQGTMVTVSS
VL: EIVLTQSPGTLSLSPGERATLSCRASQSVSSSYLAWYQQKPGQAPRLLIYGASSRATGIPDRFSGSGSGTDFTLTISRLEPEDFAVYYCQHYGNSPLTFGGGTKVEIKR
Q: Does B9 bind [1]?
A: no binding (tested: 380 nM)

B10: ATX-P-594 (antibody, human IgG1, kappa, N297A, V domains shown)
VH: QVQLQQSGPGLVKPSQTLSLTCAISGDSVSSNSASWNWIRQSPSRGLEWLGTTYYRSKWFNVYAVSVKSRITINPDTSKNQFSLHLNSVTPEDTAIYFCTRDRGDLLHWYFDLWGRGTLVTVSS
VL: EIVLTQSPGTLSLSPGERATLSCRASQSVSSSYLAWYQQKPGQSPRLLIYGASSRATGIPDRFSGSGSGTDFTLTISRLEPEDFAVYYCQQYGRSVTFGGGTKLEIKR
Q: Does B10 bind [3]?
A: binds

Q: Does B10 bind [2]?
A: binds

B11: ATX-P-592 (antibody, human IgG1, kappa, N297A, V domains shown)
VH: QVQLQQSGPGLVKPSQTLSLTCAISGDSVSSNSAAWNWIRQSPSRGLEWLGRTYYRSKWYSDYPLSVKSRITINPDTSKNQFSLQLNSVTPEDTAVYYCARDSGIVETTPFDYWGQGTLVTVSS
VL: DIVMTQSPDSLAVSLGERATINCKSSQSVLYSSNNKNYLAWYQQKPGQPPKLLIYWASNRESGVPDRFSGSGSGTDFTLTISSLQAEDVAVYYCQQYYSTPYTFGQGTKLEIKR
Q: Does B11 bind [1]?
A: no binding (tested: 380 nM)

Q: Does B11 bind [2]?
A: binds

B12: ATX-P-572 (antibody, human IgG1, kappa, N297A, V domains shown)
VH: QVQLQQSGPGLVKPSQTLSLTCAISGDSVSSNSAAWNWIRQSPSRGLEWLGMTYYRSKWYSVFAVSVKSRITINTDTSKNQFSLQLNSVTPEDTAVYYCAREGGIVGATPFDYWGQGTLVTVSS
VL: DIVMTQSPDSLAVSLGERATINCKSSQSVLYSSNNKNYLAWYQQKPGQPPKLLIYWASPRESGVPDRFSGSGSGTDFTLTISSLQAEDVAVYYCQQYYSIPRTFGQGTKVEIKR
Q: Which results are given for B12?
A: binding result [1]: no binding (tested: 380 nM); binding result [2]: binds

B13: ATX-P-595 (antibody, human IgG1, kappa, N297A, V domains shown)
VH: QVQLQQSGPGLVKPSQTLSLTCAISGDSVSSNSAAWNWIRQSPSRGLEWLGRTYYRSKWFNDYALSVKSRITINPDTSKNQFSLHLNSVTPEDTAVYYCAREPGIVAPGPFDYWGQGTLVTVSS
VL: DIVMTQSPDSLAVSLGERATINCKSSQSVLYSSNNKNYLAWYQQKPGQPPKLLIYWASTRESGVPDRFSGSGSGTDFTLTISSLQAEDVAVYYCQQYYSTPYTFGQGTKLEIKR
Q: Does B13 bind [3]?
A: binds

Q: Does B13 bind [2]?
A: binds

B14: ATX-P-608 (antibody, human IgG1, kappa, N297A, V domains shown)
VH: QVQLQESGPGLVKPSGTLSLTCAVSGGSISSSNWWSWVRQSPGKGLEWIGEIYHTGSTNKKPSLKSRVIISVDKSKNQFSLKLISVNAADTAIYYCARDREGGTTEAFDIWGQGTMVTVSS
VL: EIVMTQSPATLSVSPGERATLSCRASQSVSSNLAWYQQKPGQAPRLLIYGASTRATGIPVRFSGSGSGTQFTLTISSLQSEDFAVYYCQQYDNWRTFGQGTRLEIKR
Q: What does the source list for B14?
A: binding result [1]: no binding (tested: 380 nM); binding result [2]: binds

B15: ATX-P-609 (antibody, human IgG1, kappa, N297A, V domains shown)
VH: QVQLQESGPGLVKPSGTLSLTCAVSGGSISSSNWWSWVRQPPGKGLEWIGEIYHSGSTNYNPSLKSRVTISVDKSKNQFSLKLRSVTAADTAVYYCARDQLSSGPTDAFDIWGQGTMVTVSS
VL: EIVMTQSPATLSVSPGERATLSCRASQSVSSNLAWYQQKPGQAPRLLIYGASTRATGIPVRFSGSGSGTQFTLTISSLQSEDFAVYYCQQYDNWRTFGQGTKLEIKR
Q: Which results are given for B15?
A: binding result [1]: no binding (tested: 380 nM); binding result [2]: binds

B16: ATX-P-596 (antibody, human IgG1, kappa, N297A, V domains shown)
VH: EVQLVESGGGLVQPGRSLRLSCAASGFSFDDYAMHWVRQVPGKGLEWVSGISWTGGSVGYADPVKGRFTISRDNAKNSLYLQMNSLRPEDTALYYCAKDMGDGYSRNWPFDYWGQGTLVTVSS
VL: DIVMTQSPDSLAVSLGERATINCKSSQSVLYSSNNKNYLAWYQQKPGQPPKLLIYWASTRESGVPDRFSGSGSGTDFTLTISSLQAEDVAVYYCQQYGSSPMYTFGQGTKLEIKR
Q: Does B16 bind [3]?
A: binds

Q: Does B16 bind [2]?
A: binds
